This series addresses T1, SloR (purified native) (UniProt I6L923 1-217).
T1 sequence: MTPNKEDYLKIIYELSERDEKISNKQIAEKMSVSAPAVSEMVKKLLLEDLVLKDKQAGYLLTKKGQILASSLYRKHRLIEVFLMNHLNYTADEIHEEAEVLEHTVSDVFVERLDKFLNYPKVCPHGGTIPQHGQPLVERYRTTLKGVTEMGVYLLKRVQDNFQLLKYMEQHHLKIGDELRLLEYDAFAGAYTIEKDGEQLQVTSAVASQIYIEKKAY
The experiment in a line: BLI. (In general: BLI is a label-free optical method that tracks binding on a fibre tip over time.)

B1: mntH.22.SRE3.WT (dsDNA)
DNA 1: CAGTAATTCTTACAAACTCTTT
DNA 2: AAAGAGTTTGTAAGAATTACTG
B1: the binding result is “no binding”.

Values taken from PMC11566000.
